From PMC7483680 (Experimental parasitology, 2020)

Biological target: T1, recombinant GST-tagged wild-type Toxoplasma gondii GCN5b bromodomain (BRD) (Toxoplasma gondii, UniProt S8F3V2 877-986)
T1 sequence (looked up): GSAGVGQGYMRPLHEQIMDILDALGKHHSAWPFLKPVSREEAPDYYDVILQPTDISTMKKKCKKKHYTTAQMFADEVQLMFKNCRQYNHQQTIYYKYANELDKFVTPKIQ
Experiment: pull-down

## SGRGKGGKGLGKGGAKRH (peptide, UniProt P62805 2-19, looked up, acetyl-lysine at K5, K8, K12 and K16; biotin (position not given)) [biotinylated tetra-acetylated histone H4 peptide (K5/8/12/16), residues 1-18 of human histone H4]
  binding result: binds
